The values below come from US20140363434A1 (COMPLIX, published 2014).

Assay [1] concerns the target T1, GST-tagged recombinant human MCL-1 (residues 172 to 327) (human, UniProt Q07820 172-327).
T1 construct: Produced in E. coli and purified by the GST tag; also called recombinant MCL-1
Description: ELISA: Alphabody (500 nM) captured by anti-V5 antibody, five-fold dilutions of GST-MCL-1, anti-GST-HRP detection; printed as 'binding affinity'. In general terms: An ELISA detects its analyte on a solid surface through an enzyme-linked reagent.
Description: (§1) Alphabody (500 nM) was captured by immobilized anti-V5 antibody (5 microg/ml) to a microtiterplate. Binding of five-fold dilutions of Glutathione S transferase (GST)-tagged recombinant BCL-2 family proteins MCL-1 (FIG. 26A), BCL-XL (FIG. 26B) and BCL-2a (FIG. 26C) was detected using a anti-GST antibody conjugated to Horse Radish Peroxidase. Plates were read at 492 nm and 630 nm.
(§2) Maxisorp Nunc plates were coated with 100 microl anti-V5 antibody (5 microg/ml) in carbonate buffer pH 9.6 overnight at 4° C. The next day, the plates were washed 3 times with Tris Buffered Saline containing 0.05% Tween 20 (TBST) and blocked with TBS containing 0.1% BSA and 0.5% gelatin for 2 h at 37° C. […] Plates were washed 10 times with TBST and five-fold dilutions of Glutathione S transferase (GST) tagged recombinant BCL-2 family proteins (MCL-1, BCL-XL and BCL-2a) were added and further incubated for 2 h at RT while shaking. Binding of GST-tagged recombinant BCL-2 family proteins was detected using an anti-GST antibody conjugated to Horse Radish Peroxidase. Signals were developed by reacting with ortho-phenylenediamine and the reaction was stopped with 4 M H₂SO₄ when the OD reached a value between 2 and 3.

In assay [2] the target is T1, GST-tagged recombinant human MCL-1 …. Description: ELISA: Alphabody (500 nM) captured by coated anti-V5 antibody; five-fold dilutions of GST-MCL-1 detected with anti-GST antibody-HRP; OD 492/630 nm.
Description: as §1, §2
Assay [3] concerns the target T2, GST-tagged recombinant human BCL-2 isoform alpha (BCL-2a) with a C-terminal deletion of 32 amino acids (human, UniProt P10415 1-207).
T2 construct: Produced in E. coli and purified by the GST tag; not shown: Glutathione S Transferase (GST) tag at the N-terminus
Description: ELISA: Alphabody (500 nM) captured by anti-V5 antibody, five-fold dilutions of GST-BCL-2a, anti-GST-HRP detection; printed as 'binding affinity'.

The target in assay [4] is T3, GST-tagged recombinant human BCL-XL with a C-terminal deletion of 24 amino acids (human, UniProt Q07817 1-209).
T3 construct: Produced in E. coli and purified by the GST tag; not shown: Glutathione S Transferase (GST) tag at the N-terminus
T3 sequence (Q07817 1-209, stated change not applied, form in doubt): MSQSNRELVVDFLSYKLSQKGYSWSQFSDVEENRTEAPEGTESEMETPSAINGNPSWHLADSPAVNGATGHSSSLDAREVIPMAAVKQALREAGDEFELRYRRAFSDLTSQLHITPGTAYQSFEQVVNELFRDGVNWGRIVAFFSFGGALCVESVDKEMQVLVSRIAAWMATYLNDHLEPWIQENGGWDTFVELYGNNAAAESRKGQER
Description: ELISA: Alphabody (500 nM) captured by anti-V5 antibody, five-fold dilutions of GST-BCL-XL, anti-GST-HRP detection; printed as 'binding affinity'.

For assay [5], the target named is T3, GST-tagged recombinant human BCL-XL …. Description: ELISA: Alphabody (500 nM) captured by coated anti-V5 antibody; five-fold dilutions of GST-BCL-XL detected with anti-GST antibody-HRP; OD 492/630 nm.
Description: (§3) Alphabody (500 nM) was captured by immobilized anti-V5 antibody (5 microg/ml) to a microtiterplate. Binding of five-fold dilutions of Glutathione S transferase (GST)-tagged recombinant BCL-2 family proteins MCL-1, BCL-XL and BCL-2a was detected using a anti-GST antibody conjugated to Horse Radish Peroxidase. Plates were read at 492 nm and 630 nm.
as §2
The target in assay [6] is T1, GST-tagged recombinant human MCL-1 …. Kind of assay: ELISA: Alphabody (500 nM) captured by coated anti-V5 antibody; five-fold dilutions of GST-tagged protein detected with anti-GST antibody-HRP; OD 492/630 nm.
Description: as §3, §2
Assay [7] deals with T3, GST-tagged recombinant human BCL-XL …. The assay is described as above.
Description: as §3, §2
Assay [8] concerns the target T4, MCL-1 in MCL-1 transfected HEK cell lysate (Santa Cruz) (UniProt Q07820 1-350, limits assumed).
T4 construct: The target was spotted as a whole cell lysate on nitrocellulose, not as purified protein; also called MCL-1 cell lysate; Mcl-1 cell lysate
Description: dot blot: MCL-1 transfected HEK cell lysate spotted on nitrocellulose, incubated with Alphabody, detected with anti-His antibody-HRP.

In general, Kd refers to a measure of binding affinity in units of concentration. A word on the EC50 (read off the curve): it is the concentration giving half of the maximal effect.

T1 sequence (Q07820 172-327 limits assumed): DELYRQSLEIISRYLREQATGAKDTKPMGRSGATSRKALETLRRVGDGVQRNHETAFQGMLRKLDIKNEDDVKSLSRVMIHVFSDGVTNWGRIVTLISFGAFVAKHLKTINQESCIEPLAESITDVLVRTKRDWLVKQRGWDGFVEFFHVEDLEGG
T2 sequence (P10415 1-207, stated change not applied, form in doubt): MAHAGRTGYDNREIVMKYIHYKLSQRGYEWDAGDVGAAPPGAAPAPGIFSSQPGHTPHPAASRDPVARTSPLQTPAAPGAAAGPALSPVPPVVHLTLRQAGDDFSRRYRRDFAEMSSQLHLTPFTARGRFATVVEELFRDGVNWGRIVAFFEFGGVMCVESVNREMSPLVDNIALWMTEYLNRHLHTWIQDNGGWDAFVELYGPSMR
T4 sequence (Q07820 whole entry): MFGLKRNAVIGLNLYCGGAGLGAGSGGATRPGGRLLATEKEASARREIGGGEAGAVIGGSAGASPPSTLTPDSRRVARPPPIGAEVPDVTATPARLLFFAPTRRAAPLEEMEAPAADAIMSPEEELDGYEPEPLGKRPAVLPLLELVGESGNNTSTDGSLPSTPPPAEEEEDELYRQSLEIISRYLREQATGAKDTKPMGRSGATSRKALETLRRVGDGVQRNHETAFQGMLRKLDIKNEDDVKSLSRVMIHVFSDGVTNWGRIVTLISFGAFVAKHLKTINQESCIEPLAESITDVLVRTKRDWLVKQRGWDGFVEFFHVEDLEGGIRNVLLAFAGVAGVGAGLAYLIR

B1: AB1_A2aF_hiKR3-V5 (designed binder)
chain: MSIQQIQKQFKRIQKQIKRIEKQIKRMTGGSGGSGGMSIEEITKQIAAIQLRIVGDQVQIYAMTGGSGGGSGGGSGGGSGGSIEEIKKSIRAIQKEIKKIQKKIKKMTPHHHHHHHHHHGKPIPNPLLGLDST
notes: Cationized MCL-1 Alphabody with C-terminal His-tag and V5 tag
With B1, the Kd in assay [1] stood at 1 nM. In assay [2], the “EC50 (read off the curve)” value is ~1 nM.

B2: AB1_pan_hiKR3-V5 (designed binder)
chain: MSIEEIQKQFKRIQKQIKRIAKQIKRMTGGSGGSGGMSIEEIAAQIAAIQLRIIGDQFNIYYMTGSGGGGSGGSIEEIKKSIRAIQKEIKKIQKKIKKMTPHHHHHHHHHHGKPIPNPLLGLDST
notes: Cationized Alphabody with C-terminal His-tag and V5 tag
Regarding B2, the Kd in assay [1] is ~1.9 nM; in assay [3] it was ~18.7 nM; in assay [4], ~4.5 nM. The “EC50 (read off the curve)” value in assay [2] was ~2 nM; in assay [5], ~4 nM; in assay [6], ~2 nM; in assay [7], ~4 nM.

B3: tat-013 Alphabody (designed binder)
chain: YGRKKRRQRRRMSIEEIQKQIAAIQKQIAAIQKQIYAMTGGSGGGSGGGSGGGSGMSIEEIQKQIAAIQKQIAAIQKQIYAMTGGSGGGSGGGSGGGSGMSIEEIQKQIAAIQKQIAAIQKQIYAMTP
notes: also called tat-tagged control Alphabody scAB013
B3: in assay [8], the binding result was “no binding (tested: 10 uM)”.

B4: MB23_hiR-V5 (designed binder)
chain: MSIEQIQKEITTIQEVIAAIQKYIYTMTGGSGGSGGMSIQQIQAAIRRIQRAIRRIQRAIRRMTGSGGGGSGMSIEEIQKQIAAIQEQIVAIYKQIMAMASHHHHHHGKPIPNPLLGLDST
notes: Cationized Alphabody directed against IL-23, used as the negative control; also called control Alphabody MB23_hiR-V5; cationized MB23
With B4, the binding result in assay [2] is “no binding (tested: 200 nM)”.
